This note sets out measurements from the supplement of paper PMC12042874.

± gives the uncertainty stated by the source.

This data set is described as follows: amyloid nucleation score (Sup35N fusion, yeast selection) (log enrichment); library NNK3; higher = more nucleation; inactive = no reads after selection. The essentials: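 The nucleation score equals the log enrichment of output over input reads from DiMSum, centred on the mode score of non-aggregating sequences. It was computed only for sequences with 100 or more input reads. The reads came from Illumina sequencing of plasmid inserts from psi-negative yeast expressing Sup35N fused to peptides of 20 random codons, induced with 100 μM copper sulfate for 24 hours and grown 7 days at 30°C without adenine and uracil.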
For SVFDMDSMGTS, the amyloid nucleation score result is “inactive”. Next, CNVGPVSLFRFMGPLNYRDE: “inactive”; CRNSEKVWDPQRTVRALSRF: “inactive”; QNMCAARPS: “inactive”. Regarding RINESRLYLSEVKYGLTCVR, the amyloid nucleation score entry was “inactive”. Next, YSGGLWWYWPSECNNAKYVL: “inactive”. To ALASGVVVKLDICIVNNRMY belongs 3.11 ± 0.073. On to VYDNNYINFRSLLYMTKVSN, for which the amyloid nucleation score entry was “inactive”.

Turning to HSTTSLWSVVSVQSKTFMLK, the amyloid nucleation score result is “inactive”.

Turning to FLWLYQDCVV, the amyloid nucleation score entry is “inactive”.

For the substance CKIRGCKVLLDFVMASVDLW, the amyloid nucleation score entry is “inactive”.

For EVFLIIIVKMVNGLSRESRC, the amyloid nucleation score result was “inactive”. Next, YYTGFTIFLLRVWLLAGVGS: “inactive”; WPFRKKYGIVEIRDEMYAG: “inactive”. In the case of PVDKCRCGGWNLSHLHKLSS, the amyloid nucleation score is -0.615 ± 1.7. Regarding EPGILLM, the amyloid nucleation score result was “inactive”.

Consider SDEFGDHEGCMLAFRASAVW, for which the amyloid nucleation score entry was “inactive”. To VSELPSACDNYIYCCNG belongs 0.326 ± 0.2; to STLRSLCRPSGFGVAI, “inactive”. Next, MLRSDPS: “inactive”. LKTTDLLPQVTCPHLCILFL: the amyloid nucleation score was determined as 0.808 ± 0.23. To AYLSFLLFCCCKTLVWLVLR belongs 0.841 ± 0.13; to SGVSFDSIGVSVLQTHGGLR, “inactive”.

ILSRRLRLQLLFDFYNCLCG: the amyloid nucleation score result was “inactive”. To MNRLNPRYMMIKYMDIQKWW belongs “inactive”.

As for LSLRCEFSSASSGCTSGQRR, the amyloid nucleation score entry was “inactive”. Next, LPCWKFGLASHR: “inactive”. Take FFYWSWVQPEPY: the amyloid nucleation score result was “inactive”.

SSLIWNLSCELLTWLHVRRW showed an amyloid nucleation score of -1.3 ± 2.5.

Take SVLWLN: the amyloid nucleation score result was “inactive”. To GSSSCY belongs “inactive”; to LINVPDGSSSKLSDMV, “inactive”; to SCGTMTEIGVGRVLRFFVIL, “inactive”. Turning to HCGYGLFNCK, the amyloid nucleation score entry was “inactive”. To DGHWVALREKSFSNQYRSET belongs “inactive”; to VDIGYQMQGFLGICSDY, “inactive”; to VFGKCLCTNCLEEVCIRFDL, “inactive”. LASNFVGASIPPRRACGCRA: the amyloid nucleation score entry is “inactive”. Next, SVGCPVVRTQFILSPGQTSN: “inactive”.

On to FQRVCYHVWSTKN, for which the amyloid nucleation score entry was “inactive”.

Take YWQPWVNLDSYRCGHNSQFP: the amyloid nucleation score result is “inactive”. As for HLKCPRERLT, the amyloid nucleation score result was “inactive”. To CFCRMNIGGHCGVRRKLKV belongs “inactive”; to CMIMRAFRYNVALDMHMLHD, “inactive”; to CGLDSCLVICQYK, 0.584 ± 0.28. With NSLDSRMYGI, the amyloid nucleation score result was “inactive”. To ASHYTVSFFSENDAHRGACR belongs “inactive”; to WKFWVAC, “inactive”; to DTMSKPSLLLGIPCVTHDVA, “inactive”. Next, QPDFLSWVDACVNKVVYWVK: -0.421 ± 0.98. Next, NVWDMEEERWNLKAILTMWA: “inactive”; LNIIP: “inactive”; NHRSG: “inactive”.

For DDGDVNDGRTWFIL, the amyloid nucleation score entry was “inactive”. Take ILSKVNSKSDKRSF: the amyloid nucleation score result is “inactive”. For the substance ECTSF, the amyloid nucleation score entry is “inactive”. Consider FCTPI, for which the amyloid nucleation score result was “inactive”. To YSDTFADNYLNCMHQVKCVN belongs “inactive”.

Take AVICYS: the amyloid nucleation score result was “inactive”.

Take GAFSYEVFPTGRPLFKTGGH: the amyloid nucleation score result was “inactive”. Turning to ELVGQF, the amyloid nucleation score entry is “inactive”. Next, RVRSDGANGWGVVMNACWMS: “inactive”. To LAGRHVVMWLQLMAHDIENM belongs “inactive”. Next, FHKKMCTWIDELVIAVQFRD: “inactive”. With WVSSDRHSSLVNWKHGLSQE, the amyloid nucleation score entry was “inactive”. To NHLVGLNMSISMCDSLNSVF belongs “inactive”; to RIFRCVEIA, “inactive”. As for VWLRGFQLGMDDFLWRVSGC, the amyloid nucleation score result was “inactive”.

With FFRVYYRSTGGVNM, the amyloid nucleation score entry is “inactive”. To NFYRFNIVRNNVLM belongs “inactive”; to QFSVCCCRHLPLYMTKAVIA, “inactive”; to FKNCHGVVTRCQW, “inactive”.

Take IRMIDWILLDAVT: the amyloid nucleation score result is “inactive”.

Take SSGHMICIYYQLVHIIVRLC: the amyloid nucleation score entry was “inactive”.

For the substance SFDQNRRVVIFVSPHSEGMR, the amyloid nucleation score result was “inactive”.

Turning to MLCFKPKPVRARNPGNILSH, the amyloid nucleation score entry is “inactive”. Next, FIVFTDF: “inactive”; TPKTLDWAYGYNIVSGKAIN: “inactive”; YSYTILHNFNKCSVKTLIFF: 2.38 ± 0.058.

For SPVSNYYDIKVVRDVSGCFT, the amyloid nucleation score result is “inactive”. With ESGNSSAFMAVMRISGTDVV, the amyloid nucleation score result is “inactive”. To FMMMYDCNLDCFRHSIEI belongs “inactive”; to AGRDIIMYNRAWFNISAA, “inactive”. To GWSDRFSMLYSFLLLLWKSP belongs “inactive”; to MCEGLEFLNTK, “inactive”; to IVSCTCDRMADLGST, “inactive”. For the substance FHGFLYSAFSSDG, the amyloid nucleation score result was “inactive”. For NNLTKM, the amyloid nucleation score entry was “inactive”. Turning to SYYAHL, the amyloid nucleation score result is “inactive”. Next, LKIWLRSYPYPLTGQKQRPK: “inactive”; SIAIHSMLKYNVPLVSRHSG: “inactive”. To VMIKSC belongs “inactive”. To LIIVMFPAVCIVFDFNFTVF belongs “inactive”; to TSGGTFQDATSHNSNSHMWK, “inactive”. Regarding NDKYWTIHMTSLGQRLIFAE, the amyloid nucleation score stood at 1.25 ± 0.15. In the case of KSKNPIIVFTYRM, the amyloid nucleation score amounted to 1.2 ± 0.14. The substance SHRVNWFLCSCLESYFMCNT returned an amyloid nucleation score of -0.522 ± 0.78. Next, SLVSYINGKVKNVPCKSCCY: “inactive”.

On to TNRPMNGSYNNMWSRINLMV, for which the amyloid nucleation score result is “inactive”. Consider NWFRMFIGFNSCAIRRIIWD, for which the amyloid nucleation score entry is “inactive”.

NVDGKLVD: the amyloid nucleation score result was “inactive”. On to YVDMP, for which the amyloid nucleation score was found to be 0.089 ± 0.87. To YAALWITYCLSSTTSRDDLD belongs “inactive”; to GLNLR, “inactive”; to KLTHY, “inactive”. Next, GVIILSLTAKCQAMDSVRTL: 0.841 ± 0.14; VMVSYG: “inactive”. Turning to YLLLDEVRSKYCWGISCTGY, the amyloid nucleation score result is “inactive”. Regarding MFWEGVTNSEMATKLHDKCI, the amyloid nucleation score result was “inactive”. On to CEEPFLNCHFLDY, for which the amyloid nucleation score result was “inactive”. As to MYTKNPSVSILCFDENGERA, the amyloid nucleation score entry is “inactive”. Next, CDGNMVGSTAIPVSFFPFGR: “inactive”; WARIYKMLIF: “inactive”. To TEYTILLASRNLFPTR belongs 0.598 ± 0.25; to ANKYASRFVYSISDLSWTIW, “inactive”; to DSFILLDTSTHTNTTAYGKC, “inactive”. To STIQSHCYKVVGV belongs “inactive”; to ERALIDSHPGTWLRRMTVNR, “inactive”.

Substance RDVIRRVVRMHLQLYMFMVG had an amyloid nucleation score of -0.135 ± 0.98. Next, VYPCKIFCVFVVAVILFFSL: “inactive”. Next, DDSPFLGRFK: “inactive”; SSCMAFIMGWKYITMD: “inactive”; LERYRFKRNMSVIELHNKVM: “inactive”. WANNSCAIRGNNSPMGGSVA: the amyloid nucleation score entry is “inactive”. Next, YDLVSNG: “inactive”; WDGLHVCLKSIIGGNSGLEK: “inactive”.

With KRFTLFSMIYGRV, the amyloid nucleation score entry is “inactive”. Next, IGFGSWFSKVSPNVEFVGAL: “inactive”. In the case of LGKRVGCNCICAPRSAGDGI, the amyloid nucleation score entry is “inactive”. To LSMFTFCRYPGCQRLDRKPY belongs 1.23 ± 0.1. To RRVTFGGMAHSERKRYCLFT belongs “inactive”. In the case of ELLSCLKIWDIL, the amyloid nucleation score entry was “inactive”.
